Results as given in patent EP4772193A1 (Teijin Pharma Limited, dated 2026).
Where two headings read alike, the source gives them in different places.

T1: recombinant human soluble gpNMB (recombinant human gpNMB-FLAG-His) (human, UniProt Q14956 23-498)
T1 sequence: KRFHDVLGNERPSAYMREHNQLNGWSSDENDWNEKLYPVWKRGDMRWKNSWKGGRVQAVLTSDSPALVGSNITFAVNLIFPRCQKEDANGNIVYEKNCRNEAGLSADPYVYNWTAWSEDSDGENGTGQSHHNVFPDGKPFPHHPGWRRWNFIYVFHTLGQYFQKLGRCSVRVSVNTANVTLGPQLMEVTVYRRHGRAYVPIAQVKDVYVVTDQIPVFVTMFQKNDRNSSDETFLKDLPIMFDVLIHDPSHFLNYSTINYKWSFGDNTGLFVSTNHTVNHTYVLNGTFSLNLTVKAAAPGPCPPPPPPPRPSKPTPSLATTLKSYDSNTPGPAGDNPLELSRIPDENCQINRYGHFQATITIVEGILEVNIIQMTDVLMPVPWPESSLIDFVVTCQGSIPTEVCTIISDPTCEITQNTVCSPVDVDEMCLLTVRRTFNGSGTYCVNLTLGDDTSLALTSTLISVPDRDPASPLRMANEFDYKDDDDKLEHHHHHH

T2: recombinant mouse soluble gpNMB (recombinant mouse gpNMB-FLAG-His) (mouse, UniProt Q99P91 23-502)
T2 sequence: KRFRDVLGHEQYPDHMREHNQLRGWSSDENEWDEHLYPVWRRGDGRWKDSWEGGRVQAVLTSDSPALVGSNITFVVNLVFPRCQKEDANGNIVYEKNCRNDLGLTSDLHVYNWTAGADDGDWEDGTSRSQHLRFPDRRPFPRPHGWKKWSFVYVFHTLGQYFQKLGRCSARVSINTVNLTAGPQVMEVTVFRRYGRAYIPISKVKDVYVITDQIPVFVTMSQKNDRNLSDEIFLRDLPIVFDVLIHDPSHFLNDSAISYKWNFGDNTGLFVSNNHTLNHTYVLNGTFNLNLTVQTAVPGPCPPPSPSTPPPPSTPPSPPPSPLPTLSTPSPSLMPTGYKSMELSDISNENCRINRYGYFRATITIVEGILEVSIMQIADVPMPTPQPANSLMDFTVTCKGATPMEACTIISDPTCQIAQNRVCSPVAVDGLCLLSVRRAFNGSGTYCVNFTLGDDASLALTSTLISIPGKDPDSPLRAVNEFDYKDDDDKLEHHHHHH

T3: human gpNMB (Human Osteoactivin, His-tag, AcroBioSystems) (human, UniProt Q14956-2 23-486, limits assumed)
T3 sequence (looked up): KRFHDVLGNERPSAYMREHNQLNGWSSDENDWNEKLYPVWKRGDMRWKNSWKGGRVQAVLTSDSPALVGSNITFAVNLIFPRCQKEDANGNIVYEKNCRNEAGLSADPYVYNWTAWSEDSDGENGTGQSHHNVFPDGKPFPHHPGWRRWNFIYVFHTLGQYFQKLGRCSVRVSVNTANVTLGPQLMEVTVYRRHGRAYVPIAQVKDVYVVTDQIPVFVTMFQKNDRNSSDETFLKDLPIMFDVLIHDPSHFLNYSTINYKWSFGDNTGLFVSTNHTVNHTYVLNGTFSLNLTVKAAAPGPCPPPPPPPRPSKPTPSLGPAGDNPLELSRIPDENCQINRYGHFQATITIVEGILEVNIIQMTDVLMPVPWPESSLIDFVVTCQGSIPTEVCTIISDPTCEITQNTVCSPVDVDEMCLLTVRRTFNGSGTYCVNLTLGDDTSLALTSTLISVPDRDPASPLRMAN


What was measured:
[1] = molecular target: T1, recombinant human soluble gpNMB …; assay: SPR single-cycle kinetics, antibody over captured gpNMB-FLAG-His, 36C, mean of 2
[2] = molecular target: T2, recombinant mouse soluble gpNMB …; assay: as above
[3] = molecular target: T3, human gpNMB (Human Osteoactivin, …); assay: SPR Biacore 8K, antibody captured on protein A, gpNMB as analyte
[4] = molecular target: T1, recombinant human soluble gpNMB …; assay: antigen ELISA, vs hGPN18-2_H2L3
[5] = molecular target: T1, recombinant human soluble gpNMB …; assay: antigen ELISA, vs hGPN18-2_H2L3; remark: listed apart in the source
[6] = molecular target: T1, recombinant human soluble gpNMB …; assay: antigen ELISA
[7] = molecular target: T1, recombinant human soluble gpNMB …; assay: antigen ELISA; remark: listed apart in the source
[8] = molecular target: T1, recombinant human soluble gpNMB …; assay: antigen ELISA, vs hGPN18-2_H2L3; remark: listed apart in the source
[9] = molecular target: T1, recombinant human soluble gpNMB …; assay: antigen ELISA; remark: listed apart in the source
[10] = molecular target: T1, recombinant human soluble gpNMB …; assay: antigen ELISA; remark: listed apart in the source
[11] = molecular target: T1, recombinant human soluble gpNMB …; assay: SPR, antibody 100 nM over captured gpNMB-FLAG-His, 36C
[12] = molecular target: T1, recombinant human soluble gpNMB …; assay: SPR, antibody over captured gpNMB-FLAG-His, 1:1 model
[13] = molecular target: T1, recombinant human soluble gpNMB …; assay: antigen ELISA; remark: listed apart in the source
[14] = molecular target: T1, recombinant human soluble gpNMB …; assay: antigen ELISA; remark: listed apart in the source
[15] = molecular target: T1, recombinant human soluble gpNMB …; assay: antigen ELISA, vs hGPN06-1_H1L1

Kd [1] [nM] | koff [1] [s⁻¹] | kon [1] [M⁻¹ s⁻¹] | Kd [2] [nM] | koff [2] [s⁻¹] | kon [2] [M⁻¹ s⁻¹] | Kd [3] [nM] | koff [3] [s⁻¹] | kon [3] [M⁻¹ s⁻¹] | Binder | also measured
6.98 | 0.00121 | 176000 | 6.39 | 0.000711 | 111000 | 352 | 0.00201 | 5720 | hGPN18-5_H3L3 (antibody, V domains shown, humanized; also called hGPN18-5_VH3+VL3) VH: QVQLVQSGAEVKKPGASVKVSCKASGYTFTTYWMNWVRQAPGQGLEWIGAINPSNDYTEYNQKFKDRAIMTADKSTSTVYMELSSLRSEDTAVYYCGRSYSPDYWGQGTTVTVSS VL: DIQMTQSPSSLSASVGDRVTITCKASQNVDNHVAWHQQKPGKAPKALIYSASYRYSGVPDRFTGSGSGTDFTLTISSLQPEDFADYFCQQYKSYPFTFGGGTKLEIK | –
16.2 | 0.00307 | 308000 | 21.9 | 0.00143 | 73800 | 651 | 0.00432 | 6640 | hGPN18-5_H1L1 (antibody, V domains shown, humanized; also called hGPN18-5_VH1+VL1) VH: QVQLVQSGAEVKKPGASVKVSCKASGYTFTTYWMNWVRQAPGQGLEWIGAINPSNDYTEYNQKFKDRVTMTADTSTSTVYMELSSLRSEDTAVYYCGRSYSPDYWGQGTTVTVSS VL: DIQMTQSPSSLSASVGDRVTITCKASQNVDNHVAWFQQKPGKAPKALIYSASYRYSGVPSRFSGSGSGTDFTLTISSLQPEDFATYFCQQYKSYPFTFGGGTKLEIK | –
3.08 | 0.000727 | 237000 | 5.31 | 0.00075 | 142000 | 237 | 0.002 | 8440 | hGPN18-5_H0L0 (antibody, V domains shown, chimeric antibody with mouse GPN18-5 variable regions (VH0, VL0); also called hGPN18-5_VH0+VL0; HGPN18-5_VH0+VL0) VH: QVQLQQSGAELAKPGTSVKMSCKASGYTFTTYWMNWVKQRPGQDLEWIGAINPSNDYTEYNQKFKDKAILTADKSSNTAYMQLSSLTSEDSAVYYCGRSYSPDYWGQGTTLTVSS VL: DIVMTQSQKFMSTSVGDRVSVTCKASQNVDNHVAWHQQKPGQSPKALIYSASYRYSGVPDRFTGSGSGTDFTLTIRDVQSEDLADYFCQQYKSYPFTFGSGTELEIK | –

Further lines, the binder ahead of its results:

Binder | Kd [1] [nM] | koff [1] [s⁻¹] | kon [1] [M⁻¹ s⁻¹] | Kd [2] [nM] | koff [2] [s⁻¹] | kon [2] [M⁻¹ s⁻¹] | Kd [3] [nM] | koff [3] [s⁻¹] | kon [3] [M⁻¹ s⁻¹] | also measured
hGPN18-5_H3L1 (antibody, V domains shown, humanized; also called hGPN18-5 VH3+VL1) VH: QVQLVQSGAEVKKPGASVKVSCKASGYTFTTYWMNWVRQAPGQGLEWIGAINPSNDYTEYNQKFKDRAIMTADKSTSTVYMELSSLRSEDTAVYYCGRSYSPDYWGQGTTVTVSS VL: DIQMTQSPSSLSASVGDRVTITCKASQNVDNHVAWFQQKPGKAPKALIYSASYRYSGVPSRFSGSGSGTDFTLTISSLQPEDFATYFCQQYKSYPFTFGGGTKLEIK | 11.3 | 0.00138 | 142000 | 17.8 | 0.000862 | 52900 | 711 | 0.00484 | 6810 | –
hGPN18-2_H2L3 (antibody, V domains shown, humanized; also called humanized anti-gpNMB antibody H2L3) VH: QVQLVQSGPGLVQPTQTLTLTCSFSGFSLSTSVMGVGWIRQPSGKGLEWLADIWWDDDKDYNPSLKSRLTISKDTSKNQVVLTMTNMDTVDTATYYCARTYYSNYEYYGMDYWGQGTLVTVSS VL: DIVMTQSPDSLAVSLGERATINCRSSQTIILSNGNTYLEWYQQKPGQPPKLLIYKVSNRFSGVPDRFSGSGSGTDFTLTISSLQAEDVAVYYCFQGSHVPFTFGSGTKLEIKR | – | – | – | – | – | – | – | – | – | Relative binding activity [4]: 1; Relative binding activity [5]: 1; EC50 [6]: 4.39 nM; EC50 [7]: 1.84 nM; Relative binding activity [8]: 1; EC50 [9]: 4.39 nM; EC50 [10]: 4.39 nM; Kd [11]: 0.00778 nM; koff [11]: 7.49e-07 s⁻¹; kon [11]: 96200 M⁻¹ s⁻¹
hGPN06-1_H0L0 (antibody, V domains shown, human chimeric antibody: mouse GPN06-1 variable regions (VH0, VL0); also called human chimeric antibody of GPN06-1) VH: QVQLQQPGAEIVRPGASVKLSCKASGYTFTDNWMGWVKQRPGQGLEWIGAIDPSDSFTNYNQNFKGKATLTVDTSSSTAYMQLSSLTSEDSAVYFCTRSGYYGSPKLGGDYWGQGTTLTVSS VL: QIVLTQSPAIMSASLGEEITLTCSASSSISYMHWYQQKSGTSPKLLIYSTSNLASGVPSRFSGSGSGTFYSLTISSVEAEDAADYYCHQWNSYPCTFGGGTKLEIK | – | – | – | – | – | – | – | – | – | Kd [12]: 0.265 nM; koff [12]: 0.000209 s⁻¹; kon [12]: 789000 M⁻¹ s⁻¹; EC50 [13]: 0.383 nM
hGPN18-2_H0L0 (antibody, V domains shown, human chimeric antibody: mouse GPN18-2 variable regions; also called human chimeric antibody of GPN18-2) VH: QVTLKESGPGILQPSQTLSLTCSFSGFSLSTSVMGVGWIRQPSGKGLEWLADIWWDDDKDYNPSLKSRLTISKDTSKNQVFLKIASVDTADTATYYCARTYYSNYEYYGMDYWGQGTSVTVSS VL: DVLMTQTPLSLPVSLGDQASISCRSSQTIILSNGNTYLEWYLQKPGQSPKLLIYKVSNRFSGVPDRFSGSGSGTDFTLKISRVEAEDLGVYYCFQGSHVPFTFGSGTKLEIK | – | – | – | – | – | – | – | – | – | EC50 [7]: 1.21 nM; Kd [11]: 0.00346 nM; koff [11]: 4.71e-07 s⁻¹; kon [11]: 141000 M⁻¹ s⁻¹
hGPN06-1_H1L1 VH Y111A (antibody, V domains shown) VH: QVQLVQSGAEVKKPGASVKVSCKASGYTFTDNWMGWVKQRPGQGLEWIGAIDPSDSFTNYNQNFKGRVTMTVDTSISTAYMELSRLRSDDSAVYFCTRSGYYGSPKLGGDAWGQGTLVTVSS VL: EIVLTQSPSSLSASVGDRVTITCSASSSISYMHWYQQKSGTAPKLLIYSTSNLASGVPSRFSGSGSGTDFTFTISSLQPEDAATYYCHQWNSYPCTFGGGTKLEIK | – | – | – | – | – | – | – | – | – | EC50 [14]: 0.584 nM; Relative binding activity [15]: 0.99
